Source: paper PMC6581707

Key:
[1] = biological target: CS/DS 4-O-endosulfatase endoVB4SF from Vibrio sp. FC509 (Vibrio sp. FC509); experiment: SEC; Superdex 200 10/300 GL, 10 mM Tris-HCl, 100 mM NaCl, pH 8.0, with or without 5 mM DTT; detection at 280 nm; monomer to dimer
[2] = biological target: exoPB4SF-Q5C mutant (Photobacterium sp. FC615); experiment: as above

Row | Substance | stoichiometry N [1] | stoichiometry N [2]
1 | CS/DS 4-O-endosulfatase endoVB4SF from Vibrio sp. FC509 (enzyme) | 2 | –
2 | exoPB4SF-Q5C mutant (enzyme) | – | 2
